# Tested on: DAKAR-FLAG fusion protein (murine DAKAR residues 1 to 786 fused to FLAG)
substance,measurement,value
purified recombinant active caspase 3 (Pharmingen),cleavage products on SDS-PAGE / Western blot after in vitro incubation with the caspase,in vitro incubation of DAKAR with 100 ng caspase 3 resulted in formation of approximately 40 and 45 kDa cleavage products
purified recombinant active caspase 8 (Pharmingen),cleavage products on SDS-PAGE / Western blot after in vitro incubation with the caspase,incubation of DAKAR with 100 ng caspase 8 resulted in the formation of a 22 kDa cleavage product

# From patent US20030087411
